Read-outs that look alike come from different tables or passages of the source.
B1: CAP2 monomer (endogenous, human hippocampus) (natural protein, human (endogenous in hippocampus), UniProt P40123 1-477, looked up)
chain: MANMQGLVERLERAVSRLESLSAESHRPPGNCGEVNGVIAGVAPSVEAFDKLMDSMVAEFLKNSRILAGDVETHAEMVHSAFQAQRAFLLMASQYQQPHENDVAALLKPISEKIQEIQTFRERNRGSNMFNHLSAVSESIPALGWIAVSPKPGPYVKEMNDAATFYTNRVLKDYKHSDLRHVDWVKSYLNIWSELQAYIKEHHTTGLTWSKTGPVASTVSAFSVLSSGPGLPPPPPPLPPPGPPPLFENEGKKEESSPSRSALFAQLNQGEAITKGLRHVTDDQKTYKNPSLRAQGGQTQSPTKSHTPSPTSPKSYPSQKHAPVLELEGKKWRVEYQEDRNDLVISETELKQVAYIFKCEKSTIQIKGKVNSIIIDNCKKLGLVFDNVVGIVEVINSQDIQIQVMGRVPTISINKTEGCHIYLSEDALDCEIVSAKSSEMNILIPQDGDYREFPIPEQFKTAWDGSKLITEPAEIMA
B2: CAP2 (endogenous, rat hippocampus and primary hippocampal neurons) (natural protein, UniProt P52481 1-477, looked up)
chain: MADMLGLMQRLEFAVSRLERLSSGLHEPPGGCGEVNSLSRGIVAPSVEAFDKLINSMVAEFLKNSRVLAGDVETHAEMVHGAFQAQRAFLLMVSQHQQPQENEVAVLLKPISEKIQEIQTFRERNRGSDMFNHLSAVSESIAALGWIAVSPKPGPYVKEMNDAATFYTNRVLRDYKHSDLRHVDWVRSYLKIWSELQAYIKEHHTTGLTWSKTGPVASTASAFSILSSGPGLPPPPPPPPPPGPPPPFENEGGKEEPSPSRSALFAQLNQGEAITKGLRHVTDDKKIYKNPSLRAQGQIRSPTKTRTPSPTSSKSNSPQKHAPVLELEGKKWRVEYQEDRNDLVISETELKQVAYIFKCDKSTLQIKGKVNSITVDNCKKFGLVFDHVVGIVEVINSKDIQIQVMGRVPTISINKTEGCHLYLSKDALDCEIVSAKSSEMNVLVPQGDDYREFPIPEQFKTIWDGSKLITEPAEIMA
B3: CAP2 (endogenous, mouse hippocampus) (natural protein, mouse (endogenous in hippocampus), UniProt Q9CYT6 1-476, looked up)
chain: MTDMAGLMERLERAVIRLEQLSAGLDGPPRGCGEVNGVNGGVAPSVEAFDKLINSMVAEFLKNSRVLAGDVETHAEMVHGAFQAQRAFLLMVSQYQQPQENEVAVLLKPISEKIQEIQTFRERNRGSNMFNHLSAVSESIAALGWIAVSPKPGPYVKEMNDAATFYTNRVLKDYKHSDLRHVDWVRSYLNIWSELQAYIREHHTTGLTWSKTGPVASTASAFSILSSGPGLPPPPPPPPPPGPPPPFENEDKKEEPSPSRSALFAQLNQGEAITKGLRHVTDDKKTYKNPSLRAQGQIRSPTKTHTPSPTSPKSNSPQKHTPVLELEGKKWRVEYQEDRNDLVISETELKQVAYIFKCDKSTLQIKGKVNSITVDNCKKFGLVFDHVVGIVEVINSKDIQIQVMGRVPTISINKTEGCHLYLSEDALDCEIVSAKSSEMNVLVPQDDDYREFPIPEQFKTIWDGSKLVTEPAEIMA
B4: Myc-CAP2 (natural protein, UniProt Q9CYT6 1-476, looked up)
chain: B3 chain
B5: Streptag-CAP2 (natural protein, UniProt Q9CYT6 1-476, looked up)
chain: B3 chain

Legend:
Experiment in all cases: non-reducing SDS-PAGE with Western blot
[1] = target: the molecule itself
[2] = target: the molecule itself; remark: listed apart in the source
[3] = target: the molecule itself; remark: listed apart in the source

Protein	stoichiometry N [1]	other results
B1	2	–
B2	2	–
B3	2	–
B4	–	stoichiometry N [2]: 2
B5	–	stoichiometry N [3]: 2

From paper doi:10.1101/789552 (bioRxiv, 2019)
